Source: publication PMC4707092 (Journal of immunology (Baltimore, Md. : 1950), 2015)

B1: midiFH (other)
chain: AGEDCNELPPRRNTEILTGSWSDQTYPEGTQAIYKCRPGYRSLGNVIMVCRKGEWVALNPLRKCQKRPCGHPGDTPFGTFTLTGGNVFEYGVKAVYTCNEGYQLLGEINYRECDTDGWTNDIPICEVVKCLPVTAPENGKIVSSAMEPDREYHFGQAVRFVCNSGYKIEGDEEMHCSDDGFWSKEKPKCVEISCKSPDVINGSPISQKIIYKENERFQYKCNMGYEYSERGDAVCTESGWRPLPSCEEGKCGPPPPIDNGDITSFPLSVYAPASSVEYQCQNLYQLEGNKRITCRNGQWSEPPKCLHPCVISREIMENYNIALRWTAKQKLYSRTGESVEFVCKRGYRLSSRSHTLRTTCWDGKLEYPTCAKREDCNELPPRRNTEILTGSWSDQTYPEGTQAIYKCRPGYRSLGNVIMVCRKGEWVALNPLRKCQKRPCGHPGDTPFGTFTLTGGNVFEYGVKAVYTCNEGYQLLGEINYRECDTDGWTNDIPICEVVKCLPVTAPENGKIVSSAMEPDREYHFGQAVRFVCNSGYKIEGDEEMHCSDDGFWSKEKPKCVEISCKSPDVINGSPISQKIIYKENERFQYKCNMGYEYSERGDAVCTESGWRPLPSCEEGKCGPPPPIDNGDITSFPLSVYAPASSVEYQCQNLYQLEGNKRITCRNGQWSEPPKCLHPCVISREIMENYNIALRWTAKQKLYSRTGESVEFVCKRGYRLSSRSHTLRTTCWDGKLEYPTCAKR
B2: miniFH (other)
chain: AGEDCNELPPRRNTEILTGSWSDQTYPEGTQAIYKCRPGYRSLGNVIMVCRKGEWVALNPLRKCQKRPCGHPGDTPFGTFTLTGGNVFEYGVKAVYTCNEGYQLLGEINYRECDTDGWTNDIPICEVVKCLPVTAPENGKIVSSAMEPDREYHFGQAVRFVCNSGYKIEGDEEMHCSDDGFWSKEKPKCVEISCKSPDVINGSPISQKIIYKENERFQYKCNMGYEYSERGDAVCTESGWRPLPSCEEGKCGPPPPIDNGDITSFPLSVYAPASSVEYQCQNLYQLEGNKRITCRNGQWSEPPKCLHPCVISREIMENYNIALRWTAKQKLYSRTGESVEFVCKRGYRLSSRSHTLRTTCWDGKLEYPTCAKR

Target: C3b (UniProt P01024 749-1663, most molecules attached to the chip surface via the thioester group)
Experiment: SPR

Row | Binder | Kd [nM]
1 | B1 | 27
2 | B2 | 709
